± gives the uncertainty stated by the source.

The data set in a line: self-splicing fitness, log relative to wild type (ln ratio); higher = more splicing; Tetrahymena group I intron in knt gene, E. coli kanamycin selection, DiMSum; sequences stand for … in CUCUCU…GGAGGGAAAAGUUAUCAGGCAUGCACCUGGUAGCUAGUCUUUAAACCAAUAGAUUGCAUCGGUUUAAAAGGCAAGACCGUCAAAUUGCGGGAAAGGGGUCAACAGCCGUUCAGUACCAAGUCUCAGGGGAAACUUUGAGAUGGCCUUGCAAAGGGUAUGGUAAUAAGCUGACGGACAUGGUCCUAACCACGCAGCCAAGUCCUAAGUCAACAGAUCUUCUGUUGAUAUGGAUGCAGUUCACAGACUAAAUGUCGGUCGGGGAAGAUGUAUUCUUCUCAUAAGAUAUAGUCGGACCUCUCCUUAAUGGGAGCUAGCGGAUGAAGUGAUGCAACACUGGAGCCGCUGGGAACUAAUUUGUAUGCGAAAGUAUAUUGAUUAGUUUUGGAGUACUCGUGGUCG
The method, boiled down: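 DiMSum derived fitness as the error-weighted combination of fold changes across replicates, kanamycin versus no kanamycin, normalised to wild type. E. coli BL21(DE3) held the library, which randomised all eight P1ex-region intron nucleotides within the knt kanamycin-resistance gene on pET-22b(+). Six replicate transformations grew overnight at 37°C or 30°C on LB agar with or without 25 μg/mL kanamycin, also containing 100 μg/mL carbenicillin, 50 μM IPTG and 0.2% rhamnose, and pooled colonies were amplicon-sequenced on an Illumina HiSeq 2500.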

Take AAGCAGCAAUAUUACGCACA: the “self-splicing fitness (ln)” value was -0.331 ± 0.082 (30 °C) and 0.0315 ± 0.11 (37 °C).
For the sequence AAGCAGCAAUAUUACGGACG, the “self-splicing fitness (ln)” value was -2.62 ± 0.14 (30 °C) and -0.565 ± 0.14 (37 °C).
With AAGCAGCAAUAUUACGGACU, the “self-splicing fitness (ln)” value is, setting by setting: (30 °C) -0.985 ± 0.078; (37 °C) -0.121 ± 0.11.
In the case of AAGCAGCAAUAUUACGGAGC, the “self-splicing fitness (ln)” value is -3.81 ± 0.37 (30 °C) and -3.05 ± 0.23 (37 °C).
Turning to AAGCAGCAAUAUUACGGGCU, the “self-splicing fitness (ln)” value reads like this: (30 °C) -1.64 ± 0.14; (37 °C) -1.93 ± 0.21.
AAGCAGCAAUAUUACGGGUG: the “self-splicing fitness (ln)” value reads like this: (30 °C) -3.43 ± 0.13; (37 °C) -1.85 ± 0.1.
Regarding AAGCAGCAAUAUUACGGUAA, the “self-splicing fitness (ln)” value reads like this: (30 °C) -1.25 ± 0.091; (37 °C) -0.944 ± 0.094.
On to AAGCAGCAAUAUUACGGUCA, for which the “self-splicing fitness (ln)” value runs as follows: (30 °C) -1.19 ± 0.088; (37 °C) 0.242 ± 0.1.
Take AAGCAGCAAUAUUACGUACA: the “self-splicing fitness (ln)” value (30 °C) was -1.43 ± 0.091 and the “self-splicing fitness (ln)” value (37 °C) is -0.617 ± 0.11.
As for AAGCAGCAAUAUUACGUAUC, the “self-splicing fitness (ln)” value reads like this: (30 °C) -3.07 ± 0.1; (37 °C) -1.62 ± 0.12.
With AAGCAGCAAUAUUACGUCCG, the “self-splicing fitness (ln)” value (30 °C) is -2.15 ± 0.12 and the “self-splicing fitness (ln)” value (37 °C) is -1.13 ± 0.11.
On to AAGCAGCAAUAUUACGUGAA, for which the “self-splicing fitness (ln)” value (30 °C) is -1.35 ± 0.067 and the “self-splicing fitness (ln)” value (37 °C) is -1.05 ± 0.077.
On the same counts, the results for AAGCAGCAAUAUUACGUGAG are -1.07 ± 0.045 and -0.437 ± 0.066.
In the case of AAGCAGCAAUAUUACGUUAC, the “self-splicing fitness (ln)” value was -3.42 ± 0.29 (30 °C) and -1.35 ± 0.18 (37 °C).
With AAGCAGCAAUAUUACGUUCC, the “self-splicing fitness (ln)” value is, setting by setting: (30 °C) -1.73 ± 0.11; (37 °C) -1.54 ± 0.17.
As to AAGGAGCAAUAUUACGACGC, the “self-splicing fitness (ln)” value is -4.09 ± 0.43 (30 °C) and -1.13 ± 0.21 (37 °C).
AAGGAGCAAUAUUACGACUA: the “self-splicing fitness (ln)” value was -1.51 ± 0.17 (30 °C) and -0.705 ± 0.27 (37 °C).
Take AAGGAGCAAUAUUACGAGCA: the “self-splicing fitness (ln)” value runs as follows: (30 °C) -2.24 ± 0.45; (37 °C) -0.592 ± 0.4.
AAGGAGCAAUAUUACGAUCA: the “self-splicing fitness (ln)” value (30 °C) was -1.18 ± 0.36.
With AAGGAGCAAUAUUACGAUCC, the “self-splicing fitness (ln)” value (37 °C) came out at 0.127 ± 0.31.
On to AAGGAGCAAUAUUACGCCGC, for which the “self-splicing fitness (ln)” value (37 °C) is -2.04 ± 0.5.
Take AAGGAGCAAUAUUACGCGAU: the “self-splicing fitness (ln)” value was -2.06 ± 0.15 (30 °C) and -2.29 ± 0.28 (37 °C).
Take AAGGAGCAAUAUUACGCUAU: the “self-splicing fitness (ln)” value by setting is: (30 °C) -3.76 ± 0.4; (37 °C) -1.69 ± 0.26.
On to AAGGAGCAAUAUUACGGAUG, for which the “self-splicing fitness (ln)” value is -3.8 ± 0.21 (30 °C) and -3.29 ± 0.35 (37 °C).
Turning to AAGGAGCAAUAUUACGGCCC, the “self-splicing fitness (ln)” value runs as follows: (30 °C) -2.25 ± 0.26; (37 °C) -1.37 ± 0.34.
In the case of AAGGAGCAAUAUUACGGGAC, the “self-splicing fitness (ln)” value runs as follows: (30 °C) -2.34 ± 0.23; (37 °C) -2.36 ± 0.41.
As for AAGGAGCAAUAUUACGGUCC, the “self-splicing fitness (ln)” value is -2.13 ± 0.18 (30 °C) and -2.03 ± 0.27 (37 °C).
For AAGGAGCAAUAUUACGUAAU the same measures were -3.8 ± 0.16 and -2.27 ± 0.15.
AAGGAGCAAUAUUACGUCUA: the “self-splicing fitness (ln)” value runs as follows: (30 °C) -0.839 ± 0.24; (37 °C) -0.933 ± 0.27.
AAGGAGCAAUAUUACGUGGC: the “self-splicing fitness (ln)” value is -3.79 ± 0.19 (30 °C) and -2.37 ± 0.2 (37 °C).
AAGUAGCAAUAUUACGAGCG: the “self-splicing fitness (ln)” value reads like this: (30 °C) -0.709 ± 0.14; (37 °C) -1.11 ± 0.19.
With AAGUAGCAAUAUUACGAUAG, the “self-splicing fitness (ln)” value is -2.72 ± 0.16 (30 °C) and -2.64 ± 0.36 (37 °C).
Turning to AAGUAGCAAUAUUACGAUCG, the “self-splicing fitness (ln)” value reads like this: (30 °C) -1.43 ± 0.1; (37 °C) -0.453 ± 0.15.
With AAGUAGCAAUAUUACGCAUC, the “self-splicing fitness (ln)” value is, setting by setting: (30 °C) -3.84 ± 0.47; (37 °C) -1.08 ± 0.23.
Take AAGUAGCAAUAUUACGCCAG: the “self-splicing fitness (ln)” value (30 °C) was -2.64 ± 0.21 and the “self-splicing fitness (ln)” value (37 °C) was -0.996 ± 0.24.
Regarding AAGUAGCAAUAUUACGCUAG, the “self-splicing fitness (ln)” value by setting is: (30 °C) -1.57 ± 0.17; (37 °C) -1.04 ± 0.2.
For AAGUAGCAAUAUUACGCUGC, the “self-splicing fitness (ln)” value (37 °C) is -0.747 ± 0.19.
As to AAGUAGCAAUAUUACGGAAU, the “self-splicing fitness (ln)” value by setting is: (30 °C) -3.66 ± 0.2; (37 °C) -1.52 ± 0.16.
For AAGUAGCAAUAUUACGGAUC, the “self-splicing fitness (ln)” value was -1.17 ± 0.083 (30 °C) and -0.819 ± 0.12 (37 °C).

These data come from the supplement of paper PMC7877785.
